Experimental data published in patent US20240131155A1, “T CELLS FOR USE IN THERAPY” (Erasmus University Medical Center Rotterdam, priority 2021, published 2024).
Peptide text beside a SMILES is read from it.

Legend:
CD8+ T cells [1] = test: peptide:MHC multimer/tetramer staining of enriched T cells (flow cytometry); assay type: cell-based, human; settings: Table 4; enriched T cells after enrichment cycles
Protocol: (§1) Enrichment of epitope-specific CD8 T cells was performed according to the protocol described by Butler et al., Clin Cancer Res.;13(6):1857-1867 (2007), doi:10.1158/1078-0432, but included the following amendments. CD8+ T lymphocytes were collected from PBMCs by magnetic-activated cell sorting (MACS) according to the CD8 isolation kit (Miltenyi Biotec). CD8+ T cells with >95% purity were subsequently cultured in T cell medium supplemented with IL-2 (36 IU/mL; but no gentamycin) for 1 day, after which expansion cycles started. K562ABC cells (kindly provided by prof. Bruce Levine, University of Pennsylvania, PA) were loaded with 10 μg/ml ROPN1 and/or ROPN1B peptide and incubated for 5 h at RT in serum-free medium, after which cells were washed and fixed with 0,1% paraformaldehyde. After washing, K562ABC cells were suspended at 0.1×10^6/mL and co-cultured with T cells in a 1:20 ratio. IL-2 (36 IU/mL) and IL-15 ([…]) were added at days 1 and 3 days after start of co-culture, and after 6 days, T cells were counted, suspended at 2×10^6/mL and rested for 1 day, after which the next cycle commenced (this schedule continued up to 4 or 5 cycles). Following 4 and 5 cycles, T cells were stained with pMHC multimers (HLA*0201/MLN, Immudex, Copenhagen, Denmark). pMHC-PE were pre-incubated at RT for 10 min followed by incubation with 7AAD, anti-CD3-FITC and anti-CD8-APC for 20 min. Cells were fixed with 1% paraformaldehyde and TCR expression was measured with flow cytometry and analyzed using FlowJoX software. FIG. 4A schematically depicts the procedure to enrich epitope-specific T cells, and obtainthe corresponding TCR genes.
Following enrichment, T cells were tested for ROPN1 and/or ROPN1B epitope-specific IFNY production. To this end, T2 cells (1×10^6/mL) were loaded with peptide (20 ng/mL) for 30 min, after which T cells (1×10^5) were cultured in a 1:1 ratio with T2 cells in a round bottom 96-wells plate for 18 h. Supernatant was collected and IFN-γ production was measured with an Enzyme-linked immunosorbent assay (ELISA, BioLegend) according to the manufacturer's protocol (FIG. 9A). T2 cells loaded with an irrelevant peptide were included as a negative control. T cell IFNg production was considered epitope-specific in case levels exceeded 200 pg/ml, and levels were minimally twice as high as for irrelevant peptide (see for full listing of criteria, FIG. 8). T cells that fulfilled these criteria were stained with peptide:MHC (pMHC) tetramers to determine the frequency of epitope-specific T cells. Empty Loadable HLA Tetramers (5 μL, Tetramer shop, Kongens Lyngby, Denmark) were incubated with 0.5 μL peptide (200 μM) for 30 min on ice. Complexes of pMHC were centrifuged (3300 g, 5 min) and incubated with 0.1×10^6 T cells for 15 min at 37° C. in the dark. Next, an antibody cocktail containing CD3-FITC (1:30, BD) and CD8-APC (1:300, eBiosciences) was added and incubated for an additional 30 min at 4° C. in the dark. Finally, T cells were washed twice and fixed with 1% paraformaldehyde (PFA), after which events were acquired with FACSCelesta (BD) and analyzed using FlowJoX software.

HLA-A2 = target: T1, HLA-A2 (Homo sapiens, UniProt P04439, D140Y/D185E/D98H/E176V/E277Q/G131W/G231S/I119V/I121R/I166T/I218V/L300P/L318F/N151K/N90K/P208A/P217A/Q86G/Q94H/R138H/R169H/T345S); test: HLA-A2 stabilization assay using T2 cells; assay type: binding; settings: Table 4 (Examples 1 and 2); EC50 of peptide titration on T2 cells; read-out: Affinity for HLA.A2.01
T1 construct: The HLA-A2 stabilization assay was performed using T2 cells; endogenous in cells; host or cells: T2 cells (LCLxT lymphoblastoid hybrid cell line 0.1743CEM.T2)

CD8+ T cells [2] = test: Enrichment of epitope-specific CD8 T cells from healthy donors, epitope-specific IFNg production (ELISA); assay type: cell-based, human; settings: Table 4; positive co-cultures / co-cultures tested
Protocol: as §1
Enriched T cells were tested for ROPN1 and/or ROPN1B epitope-specific IFNY production. To this end, T2 cells (4×10^6/mL) were loaded with peptide (20 ng/mL) for 30 min. T cells (2×10^5) were cultured in a 1:1 ratio with T2 cells in a round bottom 96-wells plate, and the next day supernatant was collected and IFN-γ production was measured with an Enzyme-linked immunosorbent assay (ELISA, Invitrogen) according to manufacturer's protocol (FIG. 4B). T2 cells without peptide were included as a negative control; and staphylococcal enterotoxin B (0.1 μg, Sigma) was used as a positive control.
Enrichment of epitope-specific T cells was performed by co-culturing naïve T cells with CD11c-positive cells that were loaded with peptide. PBMCs were passed through a cell strainer (70 μm) and used for the isolation of naïve T cells and CD11c cells. To isolate CD11c-positive cells (typically dendritic cells, DC), PBMCs were stained for 10 mM at 4° C. with Fc block (10 μL/10^7 PBMCs, BD Pharmingen, Vianen, the Netherlands), after which cells were stained with CD11c-PE antibody (10 μL/10^7 PBMCs, BD Pharmingen) for 30 mM at 4° C., washed, and incubated with PE beads (10 μL/10^7 PBMCs, Miltenyi Biotech, Bergisch Gladbach, Germany) for another […] at 4° C. After washing, cells were dissolved in magnetic-activated cell sorting (MACS) buffer and passed through a MACS LS column (Miltenyi Biotec) to positively select CD11c cells. After selection, CD11c cells were irradiated with 30 Gy, and cultured overnight in a 24-wells plate (1×10^6/mL) in RPMI medium supplemented with 1% human serum (Sanquin), 1% antibiotics, […] L-glutamine, a DC maturation cocktail (a mixture of GM-CSF (10 ng/mL, ImmunoTools, Germany), IL-4 (10 ng/mL, ImmunoTools), LPS (100 ng/mL, Invitrogen, Goteborg, Sweden) and IFNY (10 ng/mL, Preprotech, London, United Kingdom)), as well as peptide (10 pg/mL). Naïve T cells were isolated with use of the Naïve T Cell isolation kit (Miltenyi Biotec) according to the manufacturer's protocol, and suspended in RPMI medium supplemented with 5% human serum (Sanquin), 1% antibiotics, […] L-glutamine and IL-7 (5 ng/mL, BD Pharmingen). The run-through of the naïve T cell selection was frozen down and used for re-stimulation of epitope-specific T cells. […]

[3] = tested on: ROPN1 or ROPN1B over-expressing MDA-MB231 tumor cells; test: IFNg production of TCR T cells co-cultured with ROPN1 or ROPN1B over-expressing tumor cells (endogenously processed epitope); assay type: cell-based, human; settings: Table 4; responding TCRs / TCRs tested, T cells transduced with TCR specific for the epitope
Protocol: In a first series of in vitro tests, TCR-transduced T cells (6×10^4/well in a 96-well plate) were co-cultured with ROPN1 or ROPN1B over-expressing MDA-MB231 tumor cells (2×10^4/well) in a total volume of 200 μl of T cell medium for 24 h at 37° C. The ROPN1 or ROPN1B over-expressing tumor cells were generated as described under ‘generation and culture of cell lines and T cells’ (see above), and tumor cells were pre-treated 48 h with IFN-Y before co-culture with T cells. […] T cells that fulfilled these criteria (examples in FIG. 10A) were assessed for their sensitivity towards their cognate epitope. […] EC50 values were calculated using GraphPad Prism 5 software.

[4] = target: T2, HLA-A2 (HLA-A2:01) on T2 cells (human); test: HLA-A2 stabilization assay on T2 cells, peptide titration (Example 2, repeated); column Affinity for HLA.A2.01 (M)
T2 construct: detected with anti-HLA-A2 mAb BB7.2

[5] = target: T2, HLA-A2 (HLA-A2:01) on T2 cells; test: HLA-A2 stabilization assay on T2 cells, peptide titration; amplitude relative to that of reference peptide YLE [panel D]
[6] = target: T2, HLA-A2 (HLA-A2:01) on T2 cells; test: HLA-A2 stabilization assay on T2 cells, peptide titration, flow cytometry with anti-HLA-A2 BB7.2; column Affinity for HLA A2:01 (M)
[7] = target: T2, HLA-A2 (HLA-A2:01) on T2 cells; test: HLA-A2 stabilization assay on T2 cells (anti-HLA-A2-PE, flow cytometry), single peptide concentration [panel D]
[8] = target: T2, HLA-A2 (HLA-A2:01) on T2 cells; test: HLA-A2 stabilization assay on T2 cells, peptide titration; amplitude = highest data point corrected for baseline [panel E]
[9] = target: T2, HLA-A2 (HLA-A2:01) on T2 cells; test: HLA-A2 stabilization assay on T2 cells (anti-HLA-A2-PE, flow cytometry), single peptide concentration 25 ug/mL [panel E]
[10] = target: T2, HLA-A2 (HLA-A2:01) on T2 cells; test: HLA-A2 stabilization assay on T2 cells, peptide titration (Example 2); column Affinity for HLA.A2.01 (M)
[11] = target: T2, HLA-A2 (HLA-A2:01) on T2 cells; test: HLA-A2 stabilization assay on T2 cells, peptide titration; EC50 calculated with GraphPad [panel D]
[12] = target: T2, HLA-A2 (HLA-A2:01) on T2 cells; test: HLA-A2 stabilization assay on T2 cells (anti-HLA-A2-PE, flow cytometry), single peptide concentration [panel B; D00018 Figure 7 continued, panel D]

EC50 [4]	Amplitude [5]	EC50 [6]	Minimum stability [7]	Amplitude [8]	Minimum stability [9]	Molecule	further results
2.84 µM	0.852 relative to YLE	3.16 µM	1.26 fold change over baseline	2180 geometric mean normalized to baseline	1.37 fold change over baseline	ALACSALGV (Synthetic peptide) [Epitope 7 peptide ALACSALGV of ROPN1 and ROPN1B]	–
–	0.593 relative to YLE	–	1.42 fold change over baseline	–	–	FLYTYIAEV (Synthetic peptide) [Epitope 10 (FLY-B) peptide FLYTYIAEV of ROPN1B]	EC50 [10]: 21.1 µM
–	1.12 relative to YLE	–	1.57 fold change over baseline	–	–	EVIGPDGLITV (Synthetic peptide) [Epitope 11 (EVI) peptide EVIGPDGLITV of ROPN1B]	EC50 [10]: 0.655 µM
–	–	–	1.08 fold change over baseline	–	1.17 fold change over baseline	AELTPELLKI (Eluted from ROPN1B-overexpressing MDA-MB231 cells; mapped in silico to HLA-B40:01) [Epitope 16 peptide AELTPELLKI (10-mer derived from immunopeptidome)]	binding result [12]: no binding

Continued, molecule first:

Molecule	EC50 [4]	Amplitude [5]	EC50 [6]	Minimum stability [7]	Amplitude [8]	Minimum stability [9]	further results
CC[C@H](C)[C@H](NC(=O)[C@H](CC(C)C)NC(=O)CNC(=O)[C@H](CC(=O)O)NC(=O)[C@@H]1CCCN1C(=O)CNC(=O)[C@@H](NC(=O)[C@@H](NC(=O)[C@@H](N)CCC(=O)O)C(C)C)[C@@H](C)CC)C(=O)N[C@H](C(=O)N[C@H](C(=O)O)C(C)C)[C@@H](C)O (H-EVIGPDGLITV-OH; N-terminus and C-terminus assumed)	–	–	–	–	–	–	pMHC staining % pMHC+ CD8+ in CD3+ (CD8+ T cells [1]): 8.25%; EC50 (HLA-A2): 0.655 µM; T cell responses observed (IFNg) against epitope (CD8+ T cells [2]): 2/2 co-cultures; T cell responses observed (IFNg) against endogenously presented epitope [3]: 1/7 responses
KTLKIVCEV (Synthetic peptide) [Epitope 3 peptide KTLKIVCEV of ROPN1 and ROPN1B]	4.4 µM	0.844 relative to YLE	4.35 µM	1.26 fold change over baseline	2620 geometric mean normalized to baseline	1.18 fold change over baseline	–
KMLKEFAKA (Synthetic peptide) [Epitope 9 peptide KMLKEFAKA of ROPN1 and ROPN1B]	38.2 µM	0.842 relative to YLE	91.2 µM	1.2 fold change over baseline	2660 geometric mean normalized to baseline	1.19 fold change over baseline	–
FLYTYIAKV (Synthetic peptide) [Epitope 4 (FLY-A) peptide FLYTYIAKV of ROPN1]	8.11 µM	0.888 relative to YLE	10.9 µM	1.63 fold change over baseline	2710 geometric mean normalized to baseline	1.5 fold change over baseline	–
LPRIPFSTF (ROPN1B, eluted)	–	0.38 relative to YLE	–	1.14 fold change over baseline	–	–	EC50 [11]: 0.0664 µM
AQMWKVVNL (Synthetic peptide) [Epitope 8 peptide AQMWKVVNL of ROPN1 and ROPN1B]	10.5 µM	0.924 relative to YLE	11.4 µM	1.4 fold change over baseline	3480 geometric mean normalized to baseline	1.29 fold change over baseline	–
SALGVTITK (ROPN1A and ROPN1B, eluted)	–	–	–	0.92 fold change over baseline	–	–	binding result [12]: no binding
FQFLYTYIA (Synthetic peptide) [Epitope 6 peptide FQFLYTYIA of ROPN1 and ROPN1B]	3.43 µM	0.739 relative to YLE	3.28 µM	1.14 fold change over baseline	2380 geometric mean normalized to baseline	1.32 fold change over baseline	–
GVTITKTLK (ROPN1A and ROPN1B, eluted)	–	0.489 relative to YLE	–	1.18 fold change over baseline	–	–	EC50 [11]: 0.57 µM
